From paper PMC10694767 (Cell Reports Medicine, 2023)

Key:
[1] = molecular target: T1, virion-encoded gp42 expressed on the cell surface of EBV-positive CNE2 cells (Epstein-Barr virus (HHV-4); strain …); test: flow cytometry on cells
T1 chain: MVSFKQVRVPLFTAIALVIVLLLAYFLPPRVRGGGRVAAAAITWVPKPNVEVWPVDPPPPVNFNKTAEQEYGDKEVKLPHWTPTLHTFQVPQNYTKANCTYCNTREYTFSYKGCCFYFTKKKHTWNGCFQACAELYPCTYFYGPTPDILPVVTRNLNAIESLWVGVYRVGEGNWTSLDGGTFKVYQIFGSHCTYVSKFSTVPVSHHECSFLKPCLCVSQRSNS

[2] = molecular target: T2, soluble EBV gp42 (ectodomain, aa 34-223) (Epstein-Barr virus, strain M81, UniProt P03205); test: SPR
[3] = molecular target: T3, gHgL-gp42 complex (soluble gHgL with soluble gp42) (Epstein-Barr virus (HHV-4), strain M81, strain); test: SPR
[4] = molecular target: T3, gHgL-gp42 complex (soluble gHgL with …); test: SEC
[5] = molecular target: virion-encoded gHgL expressed on the cell surface of EBV-positive CNE2 cells (Epstein-Barr virus (HHV-4), strain in …); test: flow cytometry on cells
[6] = molecular target: T2, soluble EBV gp42 (ectodomain, aa 34-223); test: cell-based or functional assay
[7] = molecular target: T2, soluble EBV gp42 (ectodomain, aa 34-223); test: cryo-EM structure

B1: 3E8 (anti-gp42 rabbit mAb, constant regions replaced with human IgG1) (antibody, V domains shown)
VH: QPVKESGGRLVTPGTPLTLTCTASGFSLSSYWMSWVRQARGKGLEWIGTATAGGSAWYASWAKGRFTISRTSTTVELRMTSLTTEDTATYFCARDPPGHSGLWGRGTLVTVSS
VL: DLVMTQTPASVEAAVGGTVTIKCQASESIGNALAWYQQKPGQPPKLLIYDTSNLASGVSSRFRGSGSGTQFTLTISDLECADAATYYCQTYYYSGVTTTYQAFGGGTEVDVK
In the case of B1, the binding result [1] is reported as “binds”, the Kd [2] is reported as 420 pM and the binding result [3] is reported as “binds”.

B2: 3E8 Fab (Fab, V domains shown)
VH: QPVKESGGRLVTPGTPLTLTCTASGFSLSSYWMSWVRQARGKGLEWIGTATAGGSAWYASWAKGRFTISRTSTTVELRMTSLTTEDTATYFCARDPPGHSGLWGRGTLVTVSS
VL: DLVMTQTPASVEAAVGGTVTIKCQASESIGNALAWYQQKPGQPPKLLIYDTSNLASGVSSRFRGSGSGTQFTLTISDLECADAATYYCQTYYYSGVTTTYQAFGGGTEVDVK
B2: binds [4].

B3: 6H2 (anti-gHgL mAb, constant regions replaced with human IgG1) (antibody, V domains shown)
VH: EVKLLESGGGLVQPGGSLKLSCAASGFDFSRYWMTWVRQAPGQGLEWIGEINPDSSTINYTPSLKDKFIISRDNAKNTLYLQVSKLRSEDTALYYCARSPYYYGSSYDVWGAGTAVTVSS
VL: DIVMSQSPSSLAVSAGEKVTMNCKSSQSLLNSRTRKNYLAWYQQKPGQSPKLLIYWASTRESGVPDRFTGSGSGTDFTLTISSVQAEDLAFYYCKQSYNLPTFGGGTKLEIK
B3: binds [5]; binds [3].

B4: 6H2 Fab (Fab, V domains shown)
VH: EVKLLESGGGLVQPGGSLKLSCAASGFDFSRYWMTWVRQAPGQGLEWIGEINPDSSTINYTPSLKDKFIISRDNAKNTLYLQVSKLRSEDTALYYCARSPYYYGSSYDVWGAGTAVTVSS
VL: DIVMSQSPSSLAVSAGEKVTMNCKSSQSLLNSRTRKNYLAWYQQKPGQSPKLLIYWASTRESGVPDRFTGSGSGTDFTLTISSVQAEDLAFYYCKQSYNLPTFGGGTKLEIK
B4: binds [4].

B5: 10E4 (anti-gHgL rabbit mAb, constant regions replaced with human IgG1) (antibody, V domains shown)
VH: QQVKESGGRLVTPGTPLTLTCTASGFSLSTYWMSWVRQAPGKGLEYIGVIGGSGSTYYASWAKGRFTISKTSTTVDLKITSPTTEDTATYFCARDSGAGVRFRFWGPGTLVTVSS
VL: DLVMTQTPASVEAGVGGTVTINCQASENIGSRLAWYQQKPGQPPKLLIYRASTLESGVPSRFKGSGSGTEFTLTISDLECADAATYYCQCTYGVSITINYGNDFGGGTEVVVK
B5: binds [5]; binds [3].

B6: 10E4 Fab (Fab, V domains shown)
VH: QQVKESGGRLVTPGTPLTLTCTASGFSLSTYWMSWVRQAPGKGLEYIGVIGGSGSTYYASWAKGRFTISKTSTTVDLKITSPTTEDTATYFCARDSGAGVRFRFWGPGTLVTVSS
VL: DLVMTQTPASVEAGVGGTVTINCQASENIGSRLAWYQQKPGQPPKLLIYRASTLESGVPSRFKGSGSGTEFTLTISDLECADAATYYCQCTYGVSITINYGNDFGGGTEVVVK
B6: binds [4].

B7: 5E3 (anti-gp42 rabbit mAb, constant regions replaced with human IgG1) (antibody, V domains shown)
VH: QPVEESGGRLVTPGTPLTLTCTVSGFSLSTYAMSWVRQAPGKGLEWIGTISASDTTYFANWTKGRFTISKASTTVDLKITSPTTEDTATFFCARFSAYESNRDYFDTFDPWGPGTLVTVSS
VL: DVVMTQTPSPVSAAVGGTVTIKCQASQNIYRDLAWYQQNPGQPPKLLIYGASNLASGVPSRFSGSGSGTEYILTISDLECADAATYYCQCSAYGSGYAAHAFGGGTKVDIK
With B7 the “IC50 of neutralisation of EBV infection of Akata B cells; blocks gp42:HLA-II” value [6] was 0.2 µg/mL, the binding result [1] was “binds” and the Kd [2] was 390 pM. B7: binds [3].

B8: 5E3 Fab (Fab, V domains shown)
VH: QPVEESGGRLVTPGTPLTLTCTVSGFSLSTYAMSWVRQAPGKGLEWIGTISASDTTYFANWTKGRFTISKASTTVDLKITSPTTEDTATFFCARFSAYESNRDYFDTFDPWGPGTLVTVSS
VL: DVVMTQTPSPVSAAVGGTVTIKCQASQNIYRDLAWYQQNPGQPPKLLIYGASNLASGVPSRFSGSGSGTEYILTISDLECADAATYYCQCSAYGSGYAAHAFGGGTKVDIK
B8: binds [4]; binds [7].
